Laboratory results as given in patent US20110236679A1 (FUJIFILM, published 2011).

B1: C-terminal heptapeptide fragment of BGP (RRFYGPY) (peptide)
peptide: RRFYGPY
notes: also called BGP heptapeptide; osteocalcin C-terminal heptapeptide
B2: VH(HEL)-His6 and VL(HEL)-His10, separate VH-region and VL-region polypeptides of the anti-hen egg lysozyme antibody LxE16, immobilized together on a sensor chip (other)
VH: EVQLQESGPSLVKPSQTLSLTCSVTGDSITRGYWSWIRKFPGNKLEYMGYISYSGSTFYNPSLKSRISITRDTFKNQLYLQLNSVTTEDTATYYCAEYDGTYWGQGTTVTVHHHHHHGAAEQKLISEEDLNGAA
VL: VEFAAQPAMASTDILMTQTPATLSVTPGDSVSLSCRASQSIGNNLHWFQQKSHESPRLLIKYASQSISGIPSRFSGSGSGTDFTLSINTVETEDFGMYFCQQSNSWPYTFGGGTKLEIKRAAAEHHHHHHHHHH
notes: Two separate chains, not linked; Substrate G was made from the 10:10:3 complex with lysozyme, which was then washed off; In H the chains were immobilized one after the other without antigen; also called immobilization substrates G, H

How the values were obtained:
[1] = biological target: T1, MBP-VH(BGP) and MBP-VL(BGP), separate MBP-fused VH-region and VL-region polypeptides of the anti-osteocalcin …; test: SPR (BIACORE 3000), BGP heptapeptide over immobilized MBP-VH(BGP) and MBP-VL(BGP)
T1 construct: Two separate chains, not linked, on SENSORCHIP CM5; Substrate I was made from the 1:1:1 complex with the BGP heptapeptide, which was then washed off; In J the chains were immobilized one after the other without antigen; Both entries as printed start with the MBP leader; also called immobilization substrates I, J
Description: Commercially available SENSORCHIP CM5 (trade name, manufactured by GE Healthcare) was set in a Surface Plasmon Resonance Analyzer (trade name: BIACORE 3000, manufactured by Biacore). The substrate surface was stabilized with HEPES buffer solution for SPR (20 mM HEPES-HCl, 150 mM NaCl, pH 7.4) at a flow rate of 10 μl/min, and then 70 μl of a mixed aqueous solution of 0.2 mM EDC and 0.04 mM NHS was injected thereonto. Thereafter, 50 μl of a two-fold dilution of the above complex sample solution with an acetate buffer (pH 4.5) was injected onto the substrate sample, and then blocking treatment was performed with an ethanolamine solution.
Time-dependent change in binding over a period of 10 minutes from starting the addition of the BGP heptapeptide was measured using BIACORE 3000. The binding ratio of the BGP heptapeptide was obtained by dividing the binding amount of the BGP heptapeptide over the 10-minutes-period by the immobilization amount of the antibody fragments.

[2] = biological target: T2, lysozyme (hen (hen egg lysozyme, as named for the …, UniProt P00698 19-147)); test: SPR (BIACORE 3000), 100 nM lysozyme injected for 10 min; lysozyme bound divided by fragments immobilized; fragments immobilized as 10:10:3 complex with lysozyme, antigen washed off
T2 construct: also called hen egg lysozyme; HEL
T2 sequence (P00698 19-147 limits assumed): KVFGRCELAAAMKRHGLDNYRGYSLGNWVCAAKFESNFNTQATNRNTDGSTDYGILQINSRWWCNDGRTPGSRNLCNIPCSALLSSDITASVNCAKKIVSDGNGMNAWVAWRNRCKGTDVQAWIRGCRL
Description: (§1) Time-dependent change in lysozyme binding over a period of 10 minutes from starting the addition of lysozyme was measured using BIACORE 3000. The binding ratio of lysozyme was obtained by dividing the binding amount of lysozyme during the 10-minutes-period by the immobilization amount of the antibody fragments.
(§2) The binding amount of lysozyme was calculated and expressed as a relative value, assuming that the binding amount of lysozyme in Comparative Example 2 is 1.

[3] = biological target: T2, lysozyme; test: SPR (BIACORE 3000), 100 nM lysozyme injected for 10 min; lysozyme bound divided by fragments immobilized; VH and VL fragments immobilized one after the other without antigen
Description: as §1, §2

Binder | binding result [1] | Lysozyme binding ratio [2] | Lysozyme binding ratio [3]
B1 | binds |  | 
B2 |  | 7.6 relative value (text: Comparative Example 2 = 1; in the table Comparative Example 4 stands at 1) | 1 relative value (text: Comparative Example 2 = 1; in the table Comparative Example 4 stands at 1)
